# Laboratory results as given in paper PMC8849053.
# “And” between values parts separate entries of the source, which are not always exact repeats. Equal entries are not always repeated.
# Tests used:
# [1] = molecular target: SARS-CoV-2 spike protein S1 (SARS-CoV-2); assay: ITC
# [2] = molecular target: SARS-CoV-2 spike protein S2 (SARS-CoV-2); assay: ITC
substance,measurement,setting,value
truncated canavalin (from UniProt P10562 242-445) (domain or fragment),Kd,[1],20 µM and 100 µM
same,dH,[1],-6 kcal/mol and -7 kcal/mol
same,Kd,[2],10 µM and 80 µM
same,dH,[2],-0.8 kcal/mol
